From US20090048164A1

Columns and labels:
[1] = target: Recombinant human Bcl-xL with a 25 amino acid truncation of its C-terminus (human) (UniProt Q07817); test: competition phage ELISA
[2] = target: mouse Mcl-1 with truncations of 151 amino acid residues at its N-terminus and 23 residues at its C-terminus (mouse) (UniProt P97287); test: competition phage ELISA
mouse Mcl-1 with truncations of 151 amino acid residues at its N-terminus and 23 residues at its C-terminus (mouse), sequence (P97287 152-308): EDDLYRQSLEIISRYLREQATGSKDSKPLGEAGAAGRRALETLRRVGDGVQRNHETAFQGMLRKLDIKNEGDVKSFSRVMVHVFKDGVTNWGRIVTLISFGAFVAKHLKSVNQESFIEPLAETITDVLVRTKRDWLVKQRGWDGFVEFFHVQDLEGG

Recombinant human Bcl-xL with a 25 amino acid truncation of its C-terminus (human), sequence (Q07817 1-208): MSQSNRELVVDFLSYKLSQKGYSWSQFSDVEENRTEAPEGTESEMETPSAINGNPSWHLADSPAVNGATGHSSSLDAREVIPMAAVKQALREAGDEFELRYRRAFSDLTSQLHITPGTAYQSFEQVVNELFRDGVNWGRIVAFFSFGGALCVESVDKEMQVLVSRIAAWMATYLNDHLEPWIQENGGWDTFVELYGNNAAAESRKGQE

Row | Binder | Fold/wt [1] [fold] | IC50 [1] [nM] | Fold/wt [2] [fold] | IC50 [2] [nM]
1 | QEDIIRNIARHLAQVGDSMDRSIPPG [Bid BH3 wild type, phage-displayed] | 1 | 11 | 1 | 99
2 | PSSTMGQVGRQLAAIGDDINRRYDSE [Bak BH3 I14A, phage-displayed] | 1 | 66 | 1 | 14
3 | PSSTMGQVGRALAIIGDDINRRYDSE [Bak BH3 Q11A, phage-displayed] | 5 | 238 | 1 | 16
4 | QEDIIRNIARALAQVGDSMDRSIPPG [Bid BH3 H11A, phage-displayed] | 1 | 9 | 1 | 89
5 | PSSTMGAVGRQLAIIGDDINRRYDSE [Bak BH3 Q7A, phage-displayed] | 1 | 48 | 1 | 20
6 | QEDIIRNIAAHLAQVGDSMDRSIPPG [Bid BH3 R10A, phage-displayed] | 2 | 26 | 1 | 130
7 | PSSTMEQVGRQLAIIGDDINRRYDSE [Bak BH3 G6E, phage-displayed] | < 1 | 14 | 1 | 11
8 | PSSAMGQVGRQLAIIGDDINRRYDSE [Bak BH3 T4A, phage-displayed] | 1 | 28 | 1 | 14
9 | QEDIIRNIARHLAQVGDSMARSIPPG [Bid BH3 D20A, phage-displayed] | 1 | 13 | 1 | 84
10 | QEDIIRNIARHLAQVGDSMDRSIAPG [Bid BH3 P24A, phage-displayed] | 1 | 14 | 1 | 90
11 | PASTMGQVGRQLAIIGDDINRRYDSE [Bak BH3 S2A, phage-displayed] | 1 | 28 | 1 | 16
12 | ASSTMGQVGRQLAIIGDDINRRYDSE [Bak BH3 P1A, phage-displayed] | 1 | 31 | 1 | 18
13 | QEDIARNIARHLAQVGDSMDRSIPPG [Bid BH3 I5A, phage-displayed] | 2 | 21 | 1 | 144
14 | QEDIIRNIARHLAQVGDSMDRSIPPE [Bid BH3 G26E, phage-displayed] | 2 | 17 | 1 | 94
15 | QEDIIRNIARHLAQVGDSMDRAIPPG [Bid BH3 S22A, phage-displayed] | 1 | 13 | 1 | 128
16 | QEAIIRNIARHLAQVGDSMDRSIPPG [Bid BH3 D3A, phage-displayed] | 1 | 15 | 1 | 96

Row | Binder | Fold/wt [1] [fold] | IC50 [1] [nM] | Fold/wt [2] [fold] | IC50 [2] [nM]
17 | QEDIIRNIARHLAAVGDSMDRSIPPG [Bid BH3 Q14A, phage-displayed] | 1 | 13 | 1 | 124
18 | QEDIIANIARHLAQVGDSMDRSIPPG [Bid BH3 R6A, phage-displayed] | 3 | 31 | 1 | 88
19 | QEDIIRAIARHLAQVGDSMDRSIPPG [Bid BH3 N7A, phage-displayed] | 1 | 10 | 1 | 54
20 | PSSTMGQVGRQLAIIGDAINRRYDSE [Bak BH3 D18A, phage-displayed] | 1 | 33 | 1 | 14
21 | QADIIRNIARHLAQVGDSMDRSIPPG [Bid BH3 E2A, phage-displayed] | 1 | 12 | 1 | 140
22 | QEDIIRNIARHLAQVGDAMDRSIPPG [Bid BH3 S18A, phage-displayed] | 1 | 16 | 1 | 104
23 | QEDAIRNIARHLAQVGDSMDRSIPPG [Bid BH3 I4A, phage-displayed] | 3 | 31 | 1 | 134
24 | QEDIIRNIARHLAQVGDSMDASIPPG [Bid BH3 R21A, phage-displayed] | 3 | 32 | 1 | 132
25 | PSSTMGQVGRQLAIIGDDIARRYDSE [Bak BH3 N20A, phage-displayed] | 2 | 111 | 1 | 23
26 | QEDIIRNIARHLAQVGDSMDRSIPAG [Bid BH3 P25A, phage-displayed] | 1 | 16 | 1 | 87
27 | PSSTMGQVGAQLAIIGDDINRRYDSE [Bak BH3 R10A, phage-displayed] | 3 | 163 | 1 | 29
28 | QEDIIRNIARHLAQVGDSMDRSAPPG [Bid BH3 I23A, phage-displayed] | 1 | 15 | 1 | 142
29 | PSSTAGQVGRQLAIIGDDINRRYDSE [Bak BH3 M5A, phage-displayed] | < 1 | 15 | 1 | 18
30 | PSSTMGQVGRQLAIIGDDINARYDSE [Bak BH3 R21A, phage-displayed] | 2 | 87 | 1 | 17
31 | PSATMGQVGRQLAIIGDDINRRYDSE [Bak BH3 S3A, phage-displayed] | 1 | 25 | 1 | 17
32 | AEDIIRNIARHLAQVGDSMDRSIPPG [Bid BH3 Q1A, phage-displayed] | 2 | 24 | 1 | 79
